Measurements published in paper PMC8011978.

Tests used:
[1] = target: LAdV-2 protein LH3 (lizard atadenovirus LAdV-2); assay: cryo-EM structure
[2] = target: LAdV-2 penton base protein (lizard atadenovirus LAdV-2); assay: cryo-EM structure

| Substance | stoichiometry N [1] | stoichiometry N [2] |
| --- | --- | --- |
| LAdV-2 protein LH3 (natural protein) | 3 |  |
| LAdV-2 penton base protein (natural protein) |  | 5 |
